± gives the standard error. This sample holds only a part of the variants without activity.
B1: glmS ribozyme (parent)
chain: AUAAAAGCGCCAGAACUACAGAAAUGUAGUUGACGAGGAGGAGGUUUAUCGAAUUUUCGGCGGAUGCCUCCAAA

How the values were obtained:
Details in all cases: with glucosamine-6-phosphate
glucosamine-6-phosphate [1] = variants of: B1; experiment: self-cleavage kobs at 40 uM GlcN6P; higher = faster cleavage; RNA array
Procedure, shortened: (§1)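 Barcoded ribozyme variants were transcribed in situ on sequenced MiSeq chips by E. coli RNA polymerase. At 37 °C, a hybridised Cy3 probe tracked them while glucosamine-6-phosphate (40 μM to 10 mM) in HEPES/KCl/Mg(OAc)2 buffer flowed in and tiles were imaged over ~14 h. Per-tile medians of signals normalised to baseline and to non-cleaving reference variants were fit to one- or two-exponential decays, giving kobs. kcat and KM came from weighted Michaelis–Menten fits across concentrations.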

glucosamine-6-phosphate [2] = variants of: B1; experiment: self-cleavage kobs at 10000 uM GlcN6P; higher = faster cleavage; RNA array
Procedure, shortened: as §1

glucosamine-6-phosphate [3] = variants of: B1; experiment: self-cleavage kobs at 2500 uM GlcN6P; higher = faster cleavage; RNA array
Procedure, shortened: as §1

glucosamine-6-phosphate [4] = variants of: B1; experiment: self-cleavage kobs at 640 uM GlcN6P; higher = faster cleavage; RNA array
Procedure, shortened: as §1

glucosamine-6-phosphate [5] = variants of: B1; experiment: self-cleavage kobs at 160 uM GlcN6P; higher = faster cleavage; RNA array
Procedure, shortened: as §1

Row | Variant | self-cleavage kobs at 40 uM GlcN6P (glucosamine-6-phosphate [1]) [s⁻¹] | self-cleavage kobs at 10000 uM GlcN6P (glucosamine-6-phosphate [2]) [s⁻¹] | self-cleavage kobs at 2500 uM GlcN6P (glucosamine-6-phosphate [3]) [s⁻¹] | self-cleavage kobs at 640 uM GlcN6P (glucosamine-6-phosphate [4]) [s⁻¹] | self-cleavage kobs at 160 uM GlcN6P (glucosamine-6-phosphate [5]) [s⁻¹]
1 | C11U A12U U65C C68G | < 1e-05 | < 1e-05 |  |  | 
2 | A12U U57A G59C G60C | < 1e-05 |  |  |  | 
3 | C11G A36G U49A U65C C70U | < 1e-05 | < 1e-05 |  |  | 
4 | A12G G41C C61U | < 1e-05 | < 1e-05 | < 1e-05 |  | 
5 | C11G U31G | < 1e-05 |  |  | < 1e-05 | 
6 | A12U C16A G29A A53U | 9.7e-05 ± 2e-05 |  |  |  | 
7 | A12U C16A G51C | < 1e-05 |  |  |  | 
8 | C11U G60U | < 1e-05 | < 1e-05 | < 1e-05 | < 1e-05 | 
9 | A12U G13A U47C A53G | < 1e-05 |  |  |  | 
10 | C11G U46G C58G C67U | 0.000158 ± 4.6e-05 | 0.000304 ± 8.1e-05 |  | 0.000483 ± 0.00015 | 
11 | C11A U31C G44C C70U | < 1e-05 |  |  |  | 
12 | C11G G43C | < 1e-05 | < 1e-05 |  | < 1e-05 | < 1e-05
13 | G13C A39C U47G | < 1e-05 |  | < 1e-05 |  | < 1e-05
14 | A12U A15G C71U | 0.00147 ± 0.00036 |  |  |  | 
15 | A12C U31C A39C U57G C67A | < 1e-05 | < 1e-05 |  |  | 
16 | C11U A15U U69G | 6.47e-05 ± 2.5e-05 |  |  |  | 
17 | A12C A39C C67G | < 1e-05 |  |  |  | 
18 | C11G G37C U55A C68G | < 1e-05 |  |  | 0.000386 ± 0.00018 | 
19 | A12C U56A A64C | < 1e-05 |  |  | 9.73e-05 ± 3.4e-05 | 
20 | A12G A53C U55G | < 1e-05 | 0.000115 ± 1.8e-05 |  |  | 
21 | G13A G35C G41U A53C U54A | < 1e-05 |  |  |  | 
22 | A12U A52C | < 1e-05 | 4.23e-05 ± 1.8e-05 |  |  | 
23 | A12U A39G | 0.00377 ± 0.00072 | 0.105 ± 0.045 | 0.0119 ± 0.0036 | 0.0284 ± 0.013 | 0.00677 ± 0.0016
24 | G13C A52U | < 1e-05 | < 1e-05 |  | < 1e-05 | < 1e-05
25 | G13C A52C | < 1e-05 |  | < 1e-05 | < 1e-05 | 
26 | C11U G44U | < 1e-05 |  | < 1e-05 | < 1e-05 | < 1e-05
27 | C11U A14G A15G | 0.000235 ± 5.3e-05 | 0.0112 ± 0.0025 |  |  | 
28 | A12G C16G G43C | < 1e-05 |  |  |  | 
29 | A12U G37A C61G C70A | < 1e-05 | < 1e-05 |  |  | 
30 | G13A U31C A36U C58A G60C G62A C67G | 6.61e-05 ± 3.2e-05 |  | 0.000425 ± 0.00017 |  | 

Source: the supplement of paper PMC7125110
